How the values were obtained:
[1] = target: VEK50[RH2/AA] (VEK50^ΔRH2), VEK50 with R30H31 replaced by Ala-Ala (Streptococcus pyogenes (isolate AP53)); assay: NMR titration
[2] = target: VEK50[RH1/AA] (VEK50^ΔRH1), VEK50 with R17H18 replaced by Ala-Ala (Streptococcus pyogenes (isolate AP53)); assay: NMR titration
[3] = target: VEK50[RH2/AA] (VEK50^ΔRH2), VEK50 with R30H31 replaced by Ala-Ala (Streptococcus pyogenes (isolate AP53)); assay: ITC
[4] = target: VEK50[RH1/AA] (VEK50^ΔRH1), VEK50 with R17H18 replaced by Ala-Ala (Streptococcus pyogenes (isolate AP53)); assay: ITC
[5] = target: VEK50[RH2/AA] (VEK50^ΔRH2), VEK50 with R30H31 replaced by Ala-Ala (Streptococcus pyogenes (isolate AP53)); assay: AUC
[6] = target: VEK50[RH1/AA] (VEK50^ΔRH1), VEK50 with R17H18 replaced by Ala-Ala (Streptococcus pyogenes (isolate AP53)); assay: AUC

K2hPg, kringle 2 domain of human plasminogen, triple variant C4G/E56D/L72Y (domain or fragment)
stoichiometry N (K2hPg per peptide) [1]: 1
stoichiometry N (K2hPg per peptide) [2]: 1
Kd [3]: 42 nM
stoichiometry N (K2hPg per peptide) [3]: 1
Kd [4]: 9 nM
stoichiometry N (K2hPg per peptide) [4]: 1
stoichiometry N (K2hPg per peptide) [5]: 1
stoichiometry N (K2hPg per peptide) [6]: 1

From publication PMC6983471
